These results are taken from patent CN108203464A (GENSCRIPT NANJING CO LTD, dated 2018).

The chains are these.
B1: 154G5A5B7 (antibody, V domains shown)
VH: QVQLKESGPGLVAPSQSLSITCTVSGFSLTVYGVNWVRQPPGKGLEWLGMIWGDGTTDYNSALKSRLIINKDNSKSQVFLKMNSLQTDDTARYYCARDDYGTFLYWGQGTLVTVSA
VL: DIVMSQSPSSLAVSAGEKVTMSCKSSQSLLNSRTRKNYLAWYQQKPGQSPKLLIFWASTRESGVPDRFTGSVSGTDFTLTISSVQAEDLAVYYCKQSYTLRTFGGGTKLEIK
B2: 1H10C4D4 (antibody, V domains shown)
VH: EVKLVESGGGLVKPGGSLKLSCAASGFTFSSYDMSWVRQTPDKRLEWVATISGGGSYTYYPDSVKGRFTISRDNAKNNLYLQMSSLRSEDTALYYCGSPYGKYGMEYWGQGTSVTVSS
VL: DIVMTQSHKFMSTSVGDRVSITCKASQDVGSVVAWYQQKPGQSPKLLIYWASTRHTGVPDRFTGSGSGTDFTLTISNVQSEDLADYFCQQYSSYPLTFGSGTKLELK
notes: Detected with goat anti-mouse IgG
B3: 2E5E4D11 (antibody, V domains shown)
VH: EVKLVESGGVLVQPGGSLKLSCAASGFTFSSYTMSWVRQTPEKRLEWVAYISGGGGDTYYPDTVKGRFTISRDNAKNTLYLQMNSLKSGDTAMYYCARHGYDAACFAYWGQGTLVTVSA
VL: DIVMTQSHKFMSTSVGDRVSFTCKASQDVNTAVAWYQQKPGQSPKLLIYWASTRHTGVPDRFTGSGSGTDYTLTISSVQAEDLALYYCQQHYSIPWTVGGGTKLEIK
notes: I took the two as the same clone (likely a misprint); also called 2E5E4E11

T2 sequence (Q15116 25-167 limits assumed): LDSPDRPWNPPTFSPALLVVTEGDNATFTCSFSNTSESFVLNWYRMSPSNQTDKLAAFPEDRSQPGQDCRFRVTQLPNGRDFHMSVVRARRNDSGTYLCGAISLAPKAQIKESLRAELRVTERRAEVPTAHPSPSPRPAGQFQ

For one assay, the target named is human PD-1 expressed on cells (human, UniProt Q15116 25-288). As to the kind of experiment: cell-based or functional assay.
human PD-1 expressed on cells, sequence (Q15116 25-288): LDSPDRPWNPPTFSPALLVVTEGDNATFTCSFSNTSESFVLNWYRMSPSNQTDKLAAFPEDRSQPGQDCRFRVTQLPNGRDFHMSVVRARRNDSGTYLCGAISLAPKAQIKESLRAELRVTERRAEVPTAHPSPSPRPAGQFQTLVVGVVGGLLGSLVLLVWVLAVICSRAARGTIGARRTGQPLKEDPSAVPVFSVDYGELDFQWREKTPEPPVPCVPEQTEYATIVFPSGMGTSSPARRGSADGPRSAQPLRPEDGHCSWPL
Turning to B1, the “IL-2 secretion, mixed lymphocyte reaction (CD4+ T cells + allogeneic dendritic cells), EC50” value stood at 1.12 μg/ml and the “RLU, NFAT-RE reporter effector cells (PD-1) co-cultured with PD-L1 target cells, EC50” value (shortened to “RLU, NFAT-RE reporter effector cells”) came to 1.42 µg/mL.

With B2, the “IL-2 secretion, mixed lymphocyte reaction (CD4+ T cells + allogeneic dendritic cells), EC50” value came to 0.064 μg/ml and the “RLU, NFAT-RE reporter effector cells” value came out at 1.13 µg/mL.

Turning to B3, the “IL-2 secretion, mixed lymphocyte reaction (CD4+ T cells + allogeneic dendritic cells), EC50” value is 0.929 μg/ml and the “RLU, NFAT-RE reporter effector cells” value stood at 1.01 µg/mL.

In the next assay the target is T1, 重组蛋白PD-1-Fc (GenScript, Z03370): human PD-1 extracellular domain fused to human IgG1 Fc (human, UniProt Q15116 25-170).
T1 construct: extracellular domain; Bought reagent (GenScript Z03370); also called PD-1-Fc重组蛋白; PD-1-Fc融合蛋白; not shown: human IgG1 Fc segment
T1 sequence (Q15116 25-170 limits assumed, one chain of several): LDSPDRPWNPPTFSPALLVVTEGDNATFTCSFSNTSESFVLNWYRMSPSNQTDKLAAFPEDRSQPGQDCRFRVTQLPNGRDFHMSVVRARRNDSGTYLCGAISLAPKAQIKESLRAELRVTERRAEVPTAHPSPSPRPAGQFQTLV
As to the kind of experiment: indirect ELISA, PD-1-Fc coated at 0.5 μg/ml.
On to B1, for which the response was half-maximal at 0.00872 µg/mL (EC50).

B2 returned an EC50 of 0.00681 µg/mL.

As to B3, the midpoint of the response, the EC50, lay at 0.00465 µg/mL.

A further assay addresses T2, 重组人PD-1蛋白 (recombinant human PD-1 protein) (human, UniProt Q15116 25-167, limits assumed).
T2 construct: also called 重组蛋白PD-1
As to the kind of experiment: competition ELISA: human PD-1 coated, biotin-PD-L1-Fc 0.15 μg/ml as competitor.
Regarding B1, the IC50 stood at 0.366 µg/mL.

Consider B2, for which the IC50 is 0.493 µg/mL.

With B3, the IC50 was 0.429 µg/mL.
